Data from patent publication US20230303695A1 (SHANGHAI XBH BIOTECHNOLOGY, published 2023).

T1: IGSF8 protein without D1 domain (human, UniProt Q969P0 150-579, limits assumed)
T1 construct: domain: D2-4; also called D24; D2-4
T1 sequence (looked up): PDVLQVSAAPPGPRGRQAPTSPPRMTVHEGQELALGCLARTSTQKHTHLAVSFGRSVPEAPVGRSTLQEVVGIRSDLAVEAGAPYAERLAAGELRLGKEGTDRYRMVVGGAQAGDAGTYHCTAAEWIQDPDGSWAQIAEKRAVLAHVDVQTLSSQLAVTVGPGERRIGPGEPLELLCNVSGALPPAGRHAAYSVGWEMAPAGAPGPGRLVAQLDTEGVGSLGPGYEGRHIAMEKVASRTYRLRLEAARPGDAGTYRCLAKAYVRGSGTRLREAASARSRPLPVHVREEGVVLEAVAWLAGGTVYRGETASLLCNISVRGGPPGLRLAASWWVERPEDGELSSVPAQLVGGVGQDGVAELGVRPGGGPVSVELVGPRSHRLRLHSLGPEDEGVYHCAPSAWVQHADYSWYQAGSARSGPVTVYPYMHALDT

T2: recombinant human IGSF8 extracellular domain tagged by a human Fc region (IGSF8-hFc) (human, UniProt Q969P0 28-579, biotin label in Examples 17, 18 and 28 (site not given))
T2 construct: also called IGSF8-Fc fusion protein; IGSF8-hFc-biotin; not shown: human Fc region
T2 sequence: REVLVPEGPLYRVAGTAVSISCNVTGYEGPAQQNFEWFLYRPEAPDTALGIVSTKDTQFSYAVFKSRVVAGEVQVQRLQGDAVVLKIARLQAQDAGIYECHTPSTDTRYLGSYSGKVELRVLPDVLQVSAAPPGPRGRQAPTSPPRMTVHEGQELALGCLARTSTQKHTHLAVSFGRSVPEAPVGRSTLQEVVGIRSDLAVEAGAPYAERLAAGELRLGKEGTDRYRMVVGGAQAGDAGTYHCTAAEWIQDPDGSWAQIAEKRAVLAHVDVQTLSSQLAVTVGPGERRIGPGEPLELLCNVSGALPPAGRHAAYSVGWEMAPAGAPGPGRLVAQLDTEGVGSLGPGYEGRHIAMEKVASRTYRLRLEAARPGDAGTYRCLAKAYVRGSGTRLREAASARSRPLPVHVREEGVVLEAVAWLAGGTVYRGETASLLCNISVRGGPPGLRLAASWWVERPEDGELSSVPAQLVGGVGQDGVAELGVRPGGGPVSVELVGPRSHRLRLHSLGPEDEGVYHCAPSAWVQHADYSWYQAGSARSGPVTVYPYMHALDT

T3: human IGSF8 expressed on the cell surface (human, UniProt Q969P0 28-613)
T3 construct: whole, on cells; also called human IGSF8 on CT26 cells; IGSF8 on MC38 cells
T3 sequence (looked up): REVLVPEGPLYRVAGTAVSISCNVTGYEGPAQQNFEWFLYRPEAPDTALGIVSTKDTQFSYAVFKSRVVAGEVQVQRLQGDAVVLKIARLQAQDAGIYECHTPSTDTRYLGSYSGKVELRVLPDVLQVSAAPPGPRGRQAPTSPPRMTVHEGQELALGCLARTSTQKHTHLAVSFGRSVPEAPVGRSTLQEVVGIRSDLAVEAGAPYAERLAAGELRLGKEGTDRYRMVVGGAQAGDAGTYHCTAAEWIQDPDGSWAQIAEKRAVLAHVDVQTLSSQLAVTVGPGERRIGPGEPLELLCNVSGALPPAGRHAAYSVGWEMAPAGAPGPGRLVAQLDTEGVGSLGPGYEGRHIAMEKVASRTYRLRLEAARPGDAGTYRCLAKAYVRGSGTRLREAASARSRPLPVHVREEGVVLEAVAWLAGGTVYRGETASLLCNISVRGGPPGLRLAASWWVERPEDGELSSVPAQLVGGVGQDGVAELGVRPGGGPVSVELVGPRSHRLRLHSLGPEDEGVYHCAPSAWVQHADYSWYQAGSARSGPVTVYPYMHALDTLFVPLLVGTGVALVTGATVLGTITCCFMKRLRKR

T4: mouse IGSF8 expressed on CT26 cells (mouse, UniProt Q8R366 26-611)
T4 construct: whole, on cells
T4 sequence (looked up): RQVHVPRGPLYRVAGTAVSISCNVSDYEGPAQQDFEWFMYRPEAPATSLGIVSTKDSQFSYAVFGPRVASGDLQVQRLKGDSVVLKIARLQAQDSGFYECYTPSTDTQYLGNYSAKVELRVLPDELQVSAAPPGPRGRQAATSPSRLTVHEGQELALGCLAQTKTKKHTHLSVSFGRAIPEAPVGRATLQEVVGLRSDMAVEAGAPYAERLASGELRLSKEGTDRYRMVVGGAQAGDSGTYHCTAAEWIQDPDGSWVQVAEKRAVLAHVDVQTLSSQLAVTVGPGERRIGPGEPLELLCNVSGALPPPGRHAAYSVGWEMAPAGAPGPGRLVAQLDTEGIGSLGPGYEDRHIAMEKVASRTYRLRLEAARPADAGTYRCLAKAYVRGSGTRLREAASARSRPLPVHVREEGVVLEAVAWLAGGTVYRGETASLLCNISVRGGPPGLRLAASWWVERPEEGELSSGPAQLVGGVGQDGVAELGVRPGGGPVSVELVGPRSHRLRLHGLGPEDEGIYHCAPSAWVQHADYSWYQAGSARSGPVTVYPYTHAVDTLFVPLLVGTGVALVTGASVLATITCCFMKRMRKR

T5: full-length IGSF8 (recombinant antigen of the SPR screen; IGSF8 target antigen of the phage panning) (human, UniProt Q969P0 28-579, limits assumed)
T5 sequence (looked up): T2 sequence

T6: D1 domain of IGSF8 (recombinant protein) (human, UniProt Q969P0 28-149, limits assumed)
T6 construct: domain: D1 (Ig V-set domain); also called Ig V-set domain of IGSF8
T6 sequence (looked up): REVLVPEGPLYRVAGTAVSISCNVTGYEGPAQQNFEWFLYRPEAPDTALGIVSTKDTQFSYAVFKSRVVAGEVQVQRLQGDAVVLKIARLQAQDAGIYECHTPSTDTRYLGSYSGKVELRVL

B1: Antibody C33 (1C2) (antibody, V domains shown)
VH: QVQLVESGGGVVQPGRSLRLSCAASGFTFSTYGMHWVRQAPGKGLEWVAVIWDDGSYKYYGDSVKGRFTISRDNSKNTLYLQMNSLRAEDTAVYYCARDGSGWGYAFDIWGQGTMVTVSS
VL: DIQLTQSPSSLSASVGDRVTITCQASQDISEYLNWYQHKPGKAPNPLVFDAANLETGVPPRFSATGSGTDFSLTITSLQPEDFATYYCQQYDSFPYTFGQGTRLDIK
notes: also called mAb-1C2 (C33)
B2: Antibody C31 (B46) (antibody, V domains shown)
VH: QVQLVESGGGVVQPGRSLRLSCAASGFTFSTYGMHWVRQAPGKGLEWVAVIWDDGSYKYYGDSVKGRFTISRDNSKNTLYLQMNSLRAEDTAVYYCAGGYSYSYMAIWGKGTTVTVSS
VL: DIVLTQSPSSLSASVGDRVTITCRASQGISTFLNWYQQKPGKAPKLLIYAASSLQSGVPSRFSGSGSGTDFTLTIGSLQPEDFASYFCQQTYSTQWTFGQGTKVEIK
notes: also called mAb-B46 (C31)
B3: Antibody C32 (B104) (antibody, IgG1, V domains shown)
VH: QVQLVQSGAEVKRPGASVKVSCKASGYTFTNDIIHWVRQAPGQRLEWMGWINAGYGNTQYSQNFQDRVSITRDTSASTAYMELISLRSEDTAVYYCARGYYRSPTWFDWWGQGTLVTVSS
VL: ETTLTQSPSSLSASVGDRVTITCRASQSISSWLAWYQQKPGKAPKLLIYKASSLESGVPSRFSGSGSGTEFTLTISSLQPDDFATYYCQQYGDYPYTFGQGTKLEIKR
notes: also called mAb-B104 (C32)
B4: KIR3DL1 expressed on CT26 cells (receptor, human, UniProt P43629 22-444, looked up)
chain: HMGGQDKPFLSAWPSAVVPRGGHVTLRCHYRHRFNNFMLYKEDRIHIPIFHGRIFQESFNMSPVTTAHAGNYTCRGSHPHSPTGWSAPSNPVVIMVTGNHRKPSLLAHPGPLVKSGERVILQCWSDIMFEHFFLHKEGISKDPSRLVGQIHDGVSKANFSIGPMMLALAGTYRCYGSVTHTPYQLSAPSDPLDIVVTGPYEKPSLSAQPGPKVQAGESVTLSCSSRSSYDMYHLSREGGAHERRLPAVRKVNRTFQADFPLGPATHGGTYRCFGSFRHSPYEWSDPSDPLLVSVTGNPSSSWPSPTEPSSKSGNPRHLHILIGTSVVIILFILLLFFLLHLWCSNKKNAAVMDQEPAGNRTANSEDSDEQDPEEVTYAQLDHCVFTQRKITRPSQRPKTPPTDTILYTELPNAKPRSKVVSCP
notes: whole, on cells; lentiviral vector containing a thy1.1 tag
B5: Antibody C36 (1B4) (antibody, V domains shown)
VH: EVQLLESGGGLVQPGGSLRLSCAASGFTFSSYAMSWVRQAPGKGLEWVSGITGSGGSTYYADSVKGRFTISRDNSKNTLYLQMNSLRAEDTAIYYCARGGALDIWGQGTMVTVSS
VL: DIQMTQSPSSLSASVGDRVTITCRASQVIHNYLAWYKQKPGQAPKLLIYSASSLQSGVPSRFSGSGSGTDFTLTISSLQPEDFATYYCQQSYSTPLTFGGGTKVEIKR
notes: also called mAb-1B4 (C36)
B6: KLRC1/KLRD1 heterodimer expressed on CT26 cells (receptor)
chain 1: not shown
chain 2: MAVFKTTLWRLISGTLGIICLSLMSTLGILLKNSFTKLSIEPAFTPGPNIELQKDSDCCSCQEKWVGYRCNCYFISSEQKTWNESRHLCASQKSSLLQLQNTDELDFMSSSQQFYWIGLSYSEEHTAWLWENGSALSQYLFPSFETFNTKNCIAYNPNGNALDESCEDKNRYICKQQLI
notes: whole, on cells; cells co-transfected with both lentiviral constructs; also called KLRC1&D1 heterodimer; KLRC1/D1

Target: T1, IGSF8 protein without D1 domain
Assay: FACS, single antibody dose, IGSF8-D24 (D2-D4 with TM, no D1) expressed on CT26 cells

| Binder | binding result |
| --- | --- |
| B1 | no binding (tested: not shown on the sheet) |
| B2 | no binding (tested: not shown on the sheet) |
| B3 | no binding (tested: not shown on the sheet) |

Target: T2, recombinant human IGSF8 extracellular …
Assay: FACS, biotin-labelled IGSF8-hFc on CT26 cells expressing the KIR, MFI normalized to Thy1.1
Protocol: For this experiment, different human KIR receptors (KIR2DL1, KIR2DL2, KIR2DL3, KIR2DL4, KIR2DL5A, KIR2DL5B, KIR3DL1, KIR3DL2, KIR3DL3) were first cloned into a proprietary lentiviral vector containing a thy1.1 tag (FIG. 17A). Then mouse CT26 cells, were transducted by these lentiviral constructs, and IGSF8 binding was tested with biotin-labelled recombinant IGSF8 hFc fusion protein. The mean fluorescence intensity (MFI) of IGSF8 binding to different CT26 cells were normalized by the expression of different KIRs on CT26 cells using an anti-thy1.1 mAb (Biolegend) via flow cytometry.
(§1) KLRC1 also contains a ITIM motif in its intracellular domain, and was known to be a inhibitory receptor of NK or CD8⁺ T cells as part of a heterodimer with KLRD1 on the cell surface. […] Specifically, 100,000 CT26 cells overexpressing the antigens (KIRs or KLRs) were washed with PBS buffer containing 2% FBS, and incubated with 100 μL IGSF8 recombinant proteins or antibodies (5 μg/mL) for 30 minutes on ice. Cells were then washed twice with wash buffer, and incubated with 100 μL of 1:100 anti-human Fc-PE antibody for 15 minutes on ice. Cells were washed twice with wash buffer and analyzed on a FACS analyzer (CytoFlex, Beckman). In these experiments, the mean fluorescence intensity (MFI) of IGSF8 binding to different CT26 cells were normalized by the expression of different KLRs on CT26 cells using an anti-thy1.1 mAb via flow cytometry.

| Binder | binding result |
| --- | --- |
| B4 | binds |

Target: T3, human IGSF8 expressed on the cell …
Assay: FACS on CT26 cells with forced surface expression of human IGSF8
Protocol: For antibody binding assays based on cell-expressed antigens, 100,000 cells overexpressing the antigen (either the full-length IGSF8 or the D1 domain thereof) were washed with PBS buffer containing 2% FBS, and then incubated with 100 μL of antibodies or IgG of different concentrations for 30 minutes on ice. Cells were then washed twice with wash buffer, and incubated with 100 μL of 1:100 anti-human Fc-PE antibody for 15 minutes on ice. Cells were washed twice with wash buffer and analyzed on a FACS analyzer (CytoFlex, Beckman).

| Binder | EC50 [nM] |
| --- | --- |
| B1 | 6.2 |
| B2 | 2.08 |
| B3 | 5.42 |
| B5 | 2.02 |

Target: T4, mouse IGSF8 expressed on CT26 cells
Assay: FACS on CT26 cells

| Binder | binding result |
| --- | --- |
| B2 | binds |
| B3 | binds |
| B5 | binds |

Target: T5, full-length IGSF8 (recombinant antigen …)
Assay: SPR, Biacore T100

| Binder | Kd [nM] |
| --- | --- |
| B1 | 33.2 |
| B2 | 7.29 |
| B3 | 25.9 |
| B5 | 4.57 |

Target: T6, D1 domain of IGSF8 (recombinant protein)
Assay: SPR, Biacore T100

| Binder | Kd [nM] |
| --- | --- |
| B1 | < 50 |
| B2 | < 50 |
| B3 | < 50 |
| B5 | < 50 |

Target: T1, IGSF8 protein without D1 domain
Assay: FACS, hFc-tagged proteins on CT26 cells expressing the receptor, MFI normalized to Thy1.1
Protocol: as §1

| Binder | binding result |
| --- | --- |
| B4 | no binding |
| B6 | no binding |
